According to patent US20170306033A1 (Amgen, published 2017):
Where a chain is given by its changes, count along the chain named.

B1: iPS:326417 (bispecific antibody, human IgG1, kappa, N297G)
light 1: not shown
heavy 1: not shown
light 2: EIVLTQSPGTLSLSPGERATLSCRASQSVSSGYLTWYQQKPGQAPRLLIYGASSRATGIPDRFSGSGSGTDFTLTISRLEPEDFAVYYCQQYGNSLSRFGQGTKLEIKRTVAAPSVFIFPPSDEQLKSGTASVVCLLNNFYPREAKVQWKVDNALQSGNSQESVTEQDSKDSTYSLKSTLTLSKADYEKHKVYACEVTHQGLSSPVTKSFNRGEC
heavy 2: not shown
B2: iPS:326628 (bispecific antibody, human IgG2, kappa, lambda)
light 1: DIQLTQSPSFLSASVGDRVTITCRASQSIGRSLHWYQQKPGKAPKLLIKYASQSLSGVPSRFSGSGSGTEFTLTISSLQPEDFATYYCHQSSRLPFTFGPGTKVDIKRTVAAPSVFIFPPSDEQLKSGTASVVCLLNNFYPREAKVQWKVDNALQSGNSQESVTEQDSKDSTYSLESTLTLSKADYEKHKVYACEVTHQGLSSPVTKSFNRGEC
heavy 1: QVQLVESGAEVVKPGASVKVSCKASGFTFSRFAMHWVRQAPGQGLEWMGVISYDGGNKYYAESVKGRVTMTRDTSTSTLYMELSSLRSEDTAVYYCARGYDVLTGYPDYWGQGTLVTVSSASTKGPSVFPLAPCSRSTSESTAALGCLVKDYFPEPVTVSWNSGALTSGVHTFPAVLQSSGLYSLKSVVTVPSSNFGTQTYTCNVDHKPSNTKVDKTVERKCCVECPPCPAPPVAGPSVFLFPPKPKDTLMISRTPEVTCVVVDVSHEDPEVQFNWYVDGVEVHNAKTKPREEQFNSTFRVVSVLTVVHQDWLNGKEYKCKVSNKGLPAPIEKTISKTKGQPREPQVYTLPPSREEMTKNQVSLTCLVDGFYPSDIAVEWESNGQPENNYDTTPPMLDSDGSFFLYSDLTVDKSRWQQGNVFSCSVMHEALHNHYTQKSLSLSPGK
light 2: not shown
heavy 2: not shown
B3: iPS:327282 (bispecific antibody, human IgG1, kappa, lambda, N297G)
light 1: B2 light 1
heavy 1: not shown
light 2: QSVLTQPPSVSAAPGQKVTISCSGSSSNIGNNYVSWYQQLPGTAPKLLIYDNNKRPSGIPDRFSGSKSGTSTTLGITGLQTGDEADYYCGTWDSRLSAVVFGGGTKLTVLGQPKANPTVTLFPPSSEELQANKATLVCLISDFYPGAVTVAWKADGSPVKAGVETTKPSKQSNNKYAAKSYLSLTPEQWKSHRSYSCQVTHEGSTVEKTVAPTECS
heavy 2: QVQLVESGGGVVQPGRSLRLSCAASGFTFSSFGMHWVRQAPGKGLEWVAVISFDGSIKYSVDSVKGRFTISRDNSKNTLFLQMNSLRAEDTAVYYCARDRLNYYDSSGYYHYKYYGMAVWGQGTTVTVSSASTKGPSVFPLAPSSKSTSGGTAALGCLVKDYFPEPVTVSWNSGALTSGVHTFPAVLQSSGLYSLESVVTVPSSSLGTQTYICNVNHKPSNTKVDKKVEPKSCDKTHTCPPCPAPELLGGPSVFLFPPKPKDTLMISRTPEVTCVVVDVSHEDPEVKFNWYVDGVEVHNAKTKPCEEQYGSTYRCVSVLTVLHQDWLNGKEYKCKVSNKALPAPIEKTISKAKGQPREPQVYTLPPSRKEMTKNQVSLTCLVKGFYPSDIAVEWESNGQPENNYKTTPPVLKSDGSFFLYSKLTVDKSRWQQGNVFSCSVMHEALHNHYTQKSLSLSPGK
B4: iPS:327283 (bispecific antibody, human IgG1, kappa, lambda, N297G)
light 1: EIVLTQSPATLSLSPGERATLSCRASQSVGRSLHWYQQKPGQAPRLLIKYASQSLSGIPARFSGSGSGTDFTLTISSLEPEDFAVYYCHQSSRLPFTFGPGTKVDIKRTVAAPSVFIFPPSDEQLKSGTASVVCLLNNFYPREAKVQWKVDNALQSGNSQESVTEQDSKDSTYSLESTLTLSKADYEKHKVYACEVTHQGLSSPVTKSFNRGEC
heavy 1: not shown
light 2: B3 light 2
heavy 2: B3 heavy 2
B5: iPS:327278 (bispecific antibody, human IgG1, kappa, lambda, N297G)
light 1: B2 light 1
heavy 1: not shown
light 2: not shown
heavy 2: not shown
B6: iPS:327284 (bispecific antibody, human IgG1, kappa, lambda, N297G)
light 1: DIQMTQSPSSLSASVGDRITITCRASQSISRYLNWYQQKPGKAPKLLIYAASSLQSGIPSRFSGSGSGTDFTLTINSLQPEDFATYFCQQSYSPPFTFGEGTKVDIKRTVAAPSVFIFPPSDEQLKSGTASVVCLLNNFYPREAKVQWKVDNALQSGNSQESVTEQDSKDSTYSLESTLTLSKADYEKHKVYACEVTHQGLSSPVTKSFNRGEC
heavy 1: not shown
light 2: B3 light 2 with G103K
heavy 2: B3 heavy 2 with G44E
B7: iPS:327279 (bispecific antibody, human IgG1, kappa, lambda, N297G)
light 1: B4 light 1
heavy 1: not shown
light 2: not shown
heavy 2: not shown

biological target: human CGRP receptor (human, UniProt Q16602 23-461; O60894 27-148); experiment: cell-based or functional assay
Sequence (Q16602 23-461 limits assumed, chain 1 of 2): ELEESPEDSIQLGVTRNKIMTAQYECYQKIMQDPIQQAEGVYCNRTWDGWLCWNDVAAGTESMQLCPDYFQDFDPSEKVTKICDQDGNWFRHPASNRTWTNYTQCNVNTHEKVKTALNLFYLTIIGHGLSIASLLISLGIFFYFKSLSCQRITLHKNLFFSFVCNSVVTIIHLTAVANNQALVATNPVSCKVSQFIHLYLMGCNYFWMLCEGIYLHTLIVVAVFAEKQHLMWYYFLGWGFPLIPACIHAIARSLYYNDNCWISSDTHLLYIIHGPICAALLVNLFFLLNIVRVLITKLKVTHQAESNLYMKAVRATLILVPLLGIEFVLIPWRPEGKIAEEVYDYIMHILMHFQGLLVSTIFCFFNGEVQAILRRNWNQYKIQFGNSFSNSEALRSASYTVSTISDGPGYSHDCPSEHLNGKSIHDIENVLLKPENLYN
Sequence (O60894 27-148 limits assumed, chain 2 of 2): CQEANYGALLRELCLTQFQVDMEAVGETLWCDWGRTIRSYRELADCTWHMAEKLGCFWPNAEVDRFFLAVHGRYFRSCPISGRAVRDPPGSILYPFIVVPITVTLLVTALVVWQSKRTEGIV

Row | Binder | % inhibition of human CGRPR [%]
1 | B1 | 66
2 | B2 | 84
3 | B3 | 87
4 | B4 | 85
5 | B5 | 85
6 | B6 | 77
7 | B7 | 73

biological target: T1, human PAC1 receptor (human, UniProt P41586 21-468); experiment: cell-based or functional assay
T1 sequence: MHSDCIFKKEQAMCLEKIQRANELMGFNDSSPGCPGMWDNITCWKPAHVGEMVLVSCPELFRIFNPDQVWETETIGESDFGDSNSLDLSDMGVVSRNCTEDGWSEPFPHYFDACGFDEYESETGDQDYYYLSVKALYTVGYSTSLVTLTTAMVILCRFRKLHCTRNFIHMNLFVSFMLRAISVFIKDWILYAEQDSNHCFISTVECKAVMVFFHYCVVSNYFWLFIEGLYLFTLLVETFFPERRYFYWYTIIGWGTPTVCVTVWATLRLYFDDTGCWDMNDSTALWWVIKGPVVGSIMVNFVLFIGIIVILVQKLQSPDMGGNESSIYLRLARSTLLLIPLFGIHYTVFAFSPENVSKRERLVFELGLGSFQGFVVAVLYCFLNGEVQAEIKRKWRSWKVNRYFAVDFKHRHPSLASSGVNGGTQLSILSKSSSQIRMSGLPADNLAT

Row | Binder | % inhibition of human PAC1 [%]
8 | B1 | 48
9 | B2 | 61
10 | B3 | 58
11 | B4 | 99
12 | B5 | 47
13 | B6 | 25
14 | B7 | 95
